Patent publication US20120171122A1 (published 2012)
No end group written: not given here. *: point of attachment. Biotin = O=C1N[C@H]2[C@H](CS[C@H]2CCCCC(=O)*)N1

Target: T1, N-terminally biotinylated peptide HRRSARYLDTVL
T1 construct: Captured through its biotin on streptavidin coated onto the ELISA wells; also called ligand of NHERF PDZ1 mutant H9
T1 peptide: Biotin-HRRSARYLDTVL
Assay: ELISA; serial dilutions of GST-PDZ fusion on biotinylated peptide captured on streptavidin-coated wells; anti-His HRP detection
Method: The GST-PDZ fusion protein expressed by clone H2 was partially characterized. The DNA of clone H2 was transformed into E. coli strain BL21 [DE3] and the resulting transformant induced in 1 mL culture volume using 0.1 mM IPTG for 2.5 hours at 30° C. with shaking at 300 rpm. The cells were harvested from the culture medium and lysed using BugBuster (Novagen). Batch affinity purification was carried out using 50 μl of glutathione affinity resin (Novagen), eluting the bound protein in reduced glutathione elution buffer. […] The eluted protein was tested by ELISA for binding to N-terminally biotinylated peptide […] (SEQ ID NO: 14) bound to 0.1 μg of streptavidin coated onto each well of an ELISA plate. Serial dilutions of the protein were added to wells in which the peptide was present or absent (negative controls) and immuno-detection of a C-terminal hexahistidine tag provided by the modified pGEX-2TK vector was carried out using a horseradish peroxidase-conjugated antibody (Roche).

binding result: binds
B1: GST-PDZ fusion protein expressed by clone H2 (NHERF PDZ1 loop-variant H2, CHPQFC inserted in loop β23 of NHERF PDZ1 mutant H9) (designed binder, not shown: a dimerising Fc or GST; large carriers; small tags and cut ends)
chain: LPRLCCLEKGPNGYGFHLHGEKGCHPQFCKVGQYIGLVVPGSPAEKAGLLAGDRLVEVNGENVEKETHQQVVSRIRAALNAVCLLVVDPE
notes: Partially purified on glutathione resin from induced E. coli BL21[DE3]; also called PDZ loop-variant H2; NHERF PDZ loop-variant H2
